# Results: US20230134571A1 (INTERNATIONAL AIDS VACCINE INITIATIVE, published 2023)
# Numbering of substitutions follows the chain as printed.
# B1: ePGDM13 (antibody, V domains shown)
# VH: QAQLVQSGPEVRKPGTSVKVSCKNPGNTLTTYDLHWVRQVPGQGLQWMGWISHEGDKKVIVERFKAKVTIDWDRSTNTAYLQLSGLTSEDTAVYYCAKGSKHRLRDYALYDEDGALNWAVDVDYLANLEFWGQGTAVTVSS
# VL: DIVLTQSPLSLSVTPGESASISCKSSHSLQHGDRNNYLAWYVQKPGRSPQLLLDLASERASGVPDRFSGSGSEKDFTLKISRVETEDVGTYYCMQGRESPWTFGQGTKVDIK
# B2: PGDM1400 (antibody, V domains shown)
# VH: B1 VH with A2V, Q3H, V5T, N24A, T30K, Q39S, E89G, E112D, A126S
# VL: B1 VL with I2F, L9H, Q30I, L53I, D54Y, E58S, E73D
# B3: ePGDM5 (antibody, V domains shown)
# VH: B1 VH
# VL: B1 VL with I2F, S26D, L53I, E73R, S81D, T85A
# B4: ePGDM9 (antibody, V domains shown)
# VH: B1 VH
# VL: B1 VL with H27Q, Q30I, L53I, E73R
# B5: PGDM1400 (antibody, V domains shown)
# VH: B1 VH with A2V, Q3H, V5T, N24A, T30K, Q39S, E89G, E112D, A126S
# VL: B1 VL with I2F, L9H, Q30I, L53I, D54Y, E58S, E73D
# B6: ePGDM13 (antibody, V domains shown)
# VH: B1 VH
# VL: B1 VL
# B7: ePGDM5 (antibody, V domains shown)
# VH: B1 VH
# VL: B1 VL with I2F, S26D, L53I, E73R, S81D, T85A
# Target: HIV Env of isolate 231965.c01 (clade D) (HIV)
# Test: cell-based or functional assay
row,Binder,IC50 (µg/ml) with constrains
1,B1,0.015 µg/mL
2,B2,0.061 µg/mL
3,B3,0.009 µg/mL
4,B4,0.009 µg/mL

# Target: HIV Env of isolate 249MB10 (clade C) (HIV)
# Test: cell-based or functional assay
row,Binder,IC50 (µg/ml) with constrains
1,B1,0.032 µg/mL
2,B2,0.021 µg/mL
3,B3,0.011 µg/mL
4,B4,0.007 µg/mL

# Target: HIV Env, isolate Ce703010054_2A2 (HIV)
# Test: cell-based or functional assay
row,Binder,IC80 (µg/ml) with constrains
1,B5,0.057 µg/mL
2,B6,0.031 µg/mL
3,B7,0.034 µg/mL

# Target: HIV Env of isolate 3103.v3.c10 (clade ACD) (HIV)
# Test: cell-based or functional assay
Binder,IC50 (µg/ml) with constrains,IC80 (µg/ml) with constrains
B1,0.09 µg/mL,0.36 µg/mL
B2,0.223 µg/mL,0.892 µg/mL
B3,0.063 µg/mL,0.254 µg/mL
B4,0.073 µg/mL,0.29 µg/mL

# Target: HIV Env, isolate 1394C9G1(Rev-) (HIV)
# Test: cell-based or functional assay
row,Binder,IC80 (µg/ml) with constrains
1,B5,0.012 µg/mL
2,B6,0.011 µg/mL
3,B7,0.009 µg/mL

# Target: HIV Env, isolate 3016.v5.c45 (HIV)
# Test: cell-based or functional assay
row,Binder,IC80 (µg/ml) with constrains
1,B5,> 100 µg/mL
2,B6,> 100 µg/mL
3,B7,> 100 µg/mL

# Target: HIV Env, isolate 6952.v1.c20 (HIV)
# Test: cell-based or functional assay
row,Binder,IC80 (µg/ml) with constrains
1,B5,7.03 µg/mL
2,B6,0.318 µg/mL
3,B7,0.132 µg/mL

# Target: HIV Env of isolate 928-28 (clade AG) (HIV)
# Test: cell-based or functional assay
Binder,IC50 (µg/ml) with constrains,IC80 (µg/ml) with constrains
B1,0.019 µg/mL,0.077 µg/mL
B2,0.069 µg/mL,0.277 µg/mL
B3,0.031 µg/mL,0.125 µg/mL
B4,0.027 µg/mL,0.108 µg/mL

# Target: HIV Env, isolate CNE21 (HIV)
# Test: cell-based or functional assay
row,Binder,IC80 (µg/ml) with constrains
1,B5,0.011 µg/mL
2,B6,0.006 µg/mL
3,B7,0.007 µg/mL

# Target: HIV Env of isolate QH0692.42 (clade B) (HIV)
# Test: cell-based or functional assay
row,Binder,IC50 (µg/ml) with constrains
1,B1,> 100 µg/mL
2,B2,> 100 µg/mL
3,B3,> 100 µg/mL
4,B4,> 100 µg/mL

# Target: HIV Env of isolate 0815.v3.c3 (clade ACD) (HIV)
# Test: cell-based or functional assay
Binder,IC50 (µg/ml) with constrains,IC80 (µg/ml) with constrains
B1,> 100 µg/mL,> 100 µg/mL
B2,> 100 µg/mL,> 100 µg/mL
B3,> 100 µg/mL,> 100 µg/mL
B4,> 100 µg/mL,> 100 µg/mL

# Target: HIV Env, isolate 62357_14_D3_4589 (HIV)
# Test: cell-based or functional assay
row,Binder,IC80 (µg/ml) with constrains
1,B5,> 100 µg/mL
2,B6,69.5 µg/mL
3,B7,39.9 µg/mL

# Target: HIV Env of isolate T211-9 (clade AG) (HIV)
# Test: cell-based or functional assay
Binder,IC50 (µg/ml) with constrains,IC80 (µg/ml) with constrains
B1,0.028 µg/mL,0.113 µg/mL
B2,0.058 µg/mL,0.234 µg/mL
B3,0.025 µg/mL,0.099 µg/mL
B4,0.02 µg/mL,0.081 µg/mL

# Target: HIV Env of isolate ZM233M.PB6 (clade C) (HIV)
# Test: cell-based or functional assay
row,Binder,IC50 (µg/ml) with constrains
1,B1,0.001 µg/mL
2,B2,0.002 µg/mL
3,B3,0.002 µg/mL
4,B4,0.002 µg/mL

# Target: HIV Env, isolate HIV-001428-2.42 (HIV)
# Test: cell-based or functional assay
row,Binder,IC80 (µg/ml) with constrains
1,B5,0.054 µg/mL
2,B6,0.011 µg/mL
3,B7,0.013 µg/mL

# Target: HIV Env, isolate SC05_8C11_2344 (HIV)
# Test: cell-based or functional assay
row,Binder,IC80 (µg/ml) with constrains
1,B5,17.8 µg/mL
2,B6,9.44 µg/mL
3,B7,14.5 µg/mL

# Target: HIV Env of isolate 6811.v7.c18 (clade CD) (HIV)
# Test: cell-based or functional assay
row,Binder,IC50 (µg/ml) with constrains
1,B1,> 100 µg/mL
2,B2,> 100 µg/mL
3,B3,> 100 µg/mL
4,B4,> 100 µg/mL

# Target: HIV Env of isolate Ce2010_F5 (clade C) (HIV)
# Test: cell-based or functional assay
row,Binder,IC50 (µg/ml) with constrains
1,B1,> 100 µg/mL
2,B2,> 100 µg/mL
3,B3,> 100 µg/mL
4,B4,> 100 µg/mL
